T1: human IL-36R on cells (HT29 reporter cells, HT29, A431, human PBMC) (human, UniProt Q9HB29 20-575)
T1 sequence (looked up): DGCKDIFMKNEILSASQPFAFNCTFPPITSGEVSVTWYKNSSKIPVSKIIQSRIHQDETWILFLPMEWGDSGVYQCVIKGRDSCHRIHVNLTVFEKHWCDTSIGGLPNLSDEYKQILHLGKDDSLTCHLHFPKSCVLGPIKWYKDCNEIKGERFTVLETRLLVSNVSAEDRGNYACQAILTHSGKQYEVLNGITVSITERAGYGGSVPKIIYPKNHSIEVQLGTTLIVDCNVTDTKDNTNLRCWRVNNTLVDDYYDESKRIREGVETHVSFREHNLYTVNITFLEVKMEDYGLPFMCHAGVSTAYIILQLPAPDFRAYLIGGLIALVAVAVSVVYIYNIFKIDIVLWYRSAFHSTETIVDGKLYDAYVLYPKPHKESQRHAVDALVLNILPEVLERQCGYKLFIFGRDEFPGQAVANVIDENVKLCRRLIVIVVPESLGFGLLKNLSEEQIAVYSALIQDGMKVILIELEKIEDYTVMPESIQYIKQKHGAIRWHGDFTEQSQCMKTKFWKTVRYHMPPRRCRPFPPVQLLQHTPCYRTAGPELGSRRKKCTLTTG

T2: 人白介素-36受体 (human IL-36R), soluble antigen in the Biacore assay (human)
T2 chain: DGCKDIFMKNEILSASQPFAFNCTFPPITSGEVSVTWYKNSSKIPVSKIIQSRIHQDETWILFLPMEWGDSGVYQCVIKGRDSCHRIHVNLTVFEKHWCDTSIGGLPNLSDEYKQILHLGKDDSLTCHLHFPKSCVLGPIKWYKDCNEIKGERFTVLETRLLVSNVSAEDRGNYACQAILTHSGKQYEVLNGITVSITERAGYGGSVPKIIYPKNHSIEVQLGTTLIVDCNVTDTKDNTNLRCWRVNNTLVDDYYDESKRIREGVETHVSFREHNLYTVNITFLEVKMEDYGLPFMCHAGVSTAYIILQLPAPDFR

B1: Spesolimab (self-made from the B6 sequence of US9023995B2) (antibody, V domains shown)
VH: QVQLVQSGAEVKKPGASVKVSCKASGYSFTSSWIHWVKQAPGQGLEWMGEINPGNVRTNYNENFRNKVTMTVDTSISTAYMELSRLRSDDTAVYYCTVVFYGEPYFPYWGQGTLVTVSS
VL: QIVLTQSPGTLSLSPGERATMTCTASSSVSSSYFHWYQQKPGQAPRLWIYRTSRLASGVPDRFSGSGSGTDFTLTISRLEPEDAATYYCHQFHRSPLTFGAGTKLEIK
B2: QX009N(HZD25-54) (antibody, V domains shown)
VH: EVQLVESGGGLVQPGGSLRLSCAASGIDLSNYAMGWVRQAPGKGLEWVGYISGGGSAYYASWAKGRFTISRDNSKNTLYLQMNSLRAEDTAVYYCARWAIKSYFFGMDLWGQGTLVTVSS
VL: DIQMTQSPSSVSASVGDRVTITCQASEYISSYLAWYQQKPGKAPKLLIYQASTLASGVPSRFSGSGSGTDFTLTISSLQPEDFATYYCQTNNAIHTYGGAFGGGTKVEIK

How the values were obtained:
[1] = molecular target: T1, human IL-36R on cells (HT29 reporter …); experiment: cell-based or functional assay
[2] = molecular target: T2, 人白介素-36受体 (human IL-36R), soluble …; experiment: SPR, Biacore T200, antibody captured on Protein A chip, antigen in flow, 25°C, 1:1 model, mean of three runs

Binder	抑制人IL-36(α、β、γ)诱导A431细胞释放CXCL-1的IC50 [1] [ng/mL]	抑制人IL-36(α、β、γ)诱导A431细胞释放IL-8的IC50 [1] [ng/mL]	抑制人IL-36(α、β、γ)诱导HT29细胞释放CXCL-1的IC50 [1] [ng/mL]	抑制人IL-36(α、β、γ)诱导HT29细胞释放IL-8的IC50 [1] [ng/mL]	抑制人IL-36(α、β、γ)诱导的HT29报告基因细胞STAT3磷酸化的IC50 [1] [ng/mL]	抑制人IL-36β诱导的人PBMC释放IL-8活性的IC50 [1] [ng/mL]	Kd [2] [nM]	koff [2] [s⁻¹]	kon [2] [M⁻¹ s⁻¹]	抑制人IL-36(α、β、γ)诱导的HT29报告基因细胞STAT3磷酸化活性的IC50 [1] [ng/mL]	抑制人IL-36β诱导的人PBMC细胞释放IL-8活性的IC50 [1] [ng/mL]
B1	22.5	16	12.3	11.5	15.7	26.6	0.862	3.11e-05	36000	–	–
B2	4.12	2.89	2.21	1.53	–	–	0.313	3.58e-05	114000	2.16	4.69

From patent publication CN117357474A (JIANGSU QUANXIN BIOMEDICAL CO LTD, dated 2024)
